Measured values reported in PMC8626645 (Molecular Pharmacology, 2021).

Tests used:
[1] = in vivo; cited from earlier work
From the text: Pathologic increases in blood glucose, the central metabolic defect in T2D, occur chiefly because of failure of pancreatic β cells to release enough of the glucoregulatory hormone insulin and overweight-related tissue resistance to insulin action.

[2] = molecular target: SNAP-GLP-1R (HEK293-SNAP-GLP-1R cells) (UniProt P43220); assay: FRET or BRET
Chain of UniProt P43220 (P43220 24-463): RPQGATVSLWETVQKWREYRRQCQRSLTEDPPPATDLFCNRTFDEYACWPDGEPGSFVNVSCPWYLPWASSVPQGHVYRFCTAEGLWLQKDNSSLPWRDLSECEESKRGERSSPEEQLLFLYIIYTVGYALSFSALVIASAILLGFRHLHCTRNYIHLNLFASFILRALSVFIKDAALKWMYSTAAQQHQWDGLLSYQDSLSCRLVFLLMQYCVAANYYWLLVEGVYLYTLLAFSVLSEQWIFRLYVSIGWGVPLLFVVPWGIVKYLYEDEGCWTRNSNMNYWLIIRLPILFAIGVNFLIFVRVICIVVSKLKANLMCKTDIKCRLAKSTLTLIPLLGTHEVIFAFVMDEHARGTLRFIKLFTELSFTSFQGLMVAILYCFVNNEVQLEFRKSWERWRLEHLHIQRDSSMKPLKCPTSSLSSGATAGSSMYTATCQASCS

Substance	inactivation in the circulation [1]	Log Ki (M) [2] [log M]
GLP-1(7-36)NH2: the endogenous ligand for GLP-1R	enzymatically inactivated in the circulation within minutes	
exendin-4 (from UniProt P26349 48-87) (peptide)		-9.2
